Literature values, collected in patent US20170037111A1, “Novel peptides and combination of peptides for use in immunotherapy against ovarian cancer and other cancers” (immatics biotechnologies GmbH, priority 2015, published 2017).

System: ovarian cancer
Conditions: clinical studies, phase as stated

B1: abagovomab: anti-CA-125 antibody (antibody, chains of the INN, looked up, V domains shown)
VH: QVKLQESGAELARPGASVKLSCKASGYTFTNYWMQWVKQRPGQGLDWIGAIYPGDGNTRYTHKFKGKATLTADKSSSTAYMQLSSLASEDSGVYYCARGEGNYAWFAYWGQGTTVTVSS
VL: DIELTQSPASLSASVGETVTITCQASENIYSYLAWHQQKQGKSPQLLVYNAKTLAGGVSSRFSGSGSGTHFSLKIKSLQPEDFGIYYCQHHYGILPTFGGGTKLEIK
- clinical effect in ovarian cancer patients: promising results
